Data as given in IntAct's records for PubMed 9990021.

B1: X-linked retinitis pigmentosa GTPase regulator (Homo sapiens), Q92834-2 (parent)
chain: MREPEELMPDSGAVFTFGKSKFAENNPGKFWFKNDVPVHLSCGDEHSAVVTGNNKLYMFGSNNWGQLGLGSKSAISKPTCVKALKPEKVKLAACGRNHTLVSTEGGNVYATGGNNEGQLGLGDTEERNTFHVISFFTSEHKIKQLSAGSNTSAALTEDGRLFMWGDNSEGQIGLKNVSNVCVPQQVTIGKPVSWISCGYYHSAFVTTDGELYVFGEPENGKLGLPNQLLGNHRTPQLVSEIPEKVIQVACGGEHTVVLTENAVYTFGLGQFGQLGLGTFLFETSEPKVIENIRDQTISYISCGENHTALITDIGLMYTFGDGRHGKLGLGLENFTNHFIPTLCSNFLRFIVKLVACGGCHMVVFAAPHRGVAKEIEFDEINDTCLSVATFLPYSSLTSGNVLQRTLSARMRRRERERSPDSFSMRRTLPPIEGTLGLSACFLPNSVFPRCSERNLQESVLSEQDLMQPEEPDYLLDEMTKEAEIDNSSTVESLGETTDILNMTHIMSLNSNEKSLKLSPVQKQKKQQTIGELTQDTALTENDDSDEYEEMSEMKEGKACKQHVSQGIFMTQPATTIEAFSDEEVEIPEEKEGAEDSKGNGIEEQEVEANEENVKVHGGRKEKTEILSDDLTDKAEDHEFSKTEELKLEDVDEEINAENVESKKKTVGDDESVPTGYHSKTEGAERTNDDSSAETIEKKEKANLEERAICEYNENPKGYMLDDADSSSLEILENSETTPSKDMKKTKKIFLFKRVPSINQKIVKNNNEPLPEIKSIGDQIILKSDNKDADQNHMSQNHQNIPPTNTERRSKSCTIL

Variants of: B1
Details: with pde6d_mouse Pde6d

| Variant | effect of a mutation on the interaction |
| --- | --- |
| H98Q | disrupting interaction |
| F130C | disrupting interaction |
| C250R | disrupting interaction |

The next lines start with the values.

| effect of a mutation on the interaction | Variant |
| --- | --- |
| decreasing interaction | P235S |
| disrupting interaction | G275S |
| disrupting interaction | G215V |
